Biological target: recombinant HSV-2G glycoprotein B (gB) ectodomain (aa 22-724), trimeric (HSV-2 strain G)
Assay: bio-layer interferometry (Octet), dilution series on HSV-2 recombinant gB

B1: HDIT102(H4), fully human IgG1 anti-HSV gB antibody (antibody, V domains shown)
VH: EVQLVQSGAEVKTPGASVRVSCKASGHTFRTFDINWVRQAAGQGLEWMGWMSPNSGNTGYARQFQGRVTMTRNISANTAYMELRGLRFDDTAVYYCARGPGSTGTTGSMDVWGQGTTVTVSS
VL: QAGLTQPPSVSVAPGKTARISCGGNNIGSKSVHWYQQKPGQAPVLVIYYDSDRPSGIPERFSGSNSGNTATLTISRVEAGDEADYYCQVWDSGSVVFGGGTKLTVLG
Q: B1 was tested. Which Kd did it give?
A: The Kd was < 1 pM.

Q: And the koff?
A: Its koff is < 1e-07 s⁻¹.

Q: What about the kon of the same binder?
A: Its kon is 727000 M⁻¹ s⁻¹.

Source: patent US20260265348A1
